Entries after “also recorded” stand apart in the source; their conditions may differ. Blank lines part the entries; values can stand above or below the molecule they belong to.
Experiments:
[1] = biological target: RAFT2 (Rapamycin And FKBP12 Target 2), 35 kDa protein; test: DSS crosslinking in heparin column eluate with 1 uM rapamycin plus 1 uM FK506 (small-molecule competitor)
[2] = biological target: RAFT1 (Rapamycin And FKBP12 Target 1), 245 kDa protein (rat) (UniProt P42346); test: as above
[3] = biological target: FKBP12 / RAFT1 (245 kDa) and RAFT2 (35 kDa) (Rattus norvegicus, UniProt P42346+Q62658); test: Crosslinking assay: 32P-FKBP12 with heparin column eluate of rat brain cytosol

- reduction of crosslinked band intensity [1]: 50%
- reduction of crosslinked band intensity [2]: 50%
Molecule: 32P-radiolabeled FKBP12 probe (recombinant rat FKBP12 with two consensus PKA sites added at the N-terminus, cleaved from GST with thrombin) (from UniProt Q62658 1-108)

- reduction of the intensities of the crosslinked bands ([3]; equal concentrations (1 μM) of rapamycin and FK506): approximately 50%
Molecule: C=CC[C@@H]1/C=C(\C)C[C@H](C)C[C@H](OC)[C@H]2O[C@@](O)(C(=O)C(=O)N3CCCC[C@H]3C(=O)O[C@H](/C(C)=C/[C@@H]3CC[C@@H](O)[C@H](OC)C3)[C@H](C)[C@@H](O)CC1=O)[C@H](C)C[C@@H]2OC [FK506, reference compound]

B1: unlabeled FKBP12: immunophilin receptor protein for FK506 and rapamycin, used unlabeled in excess (1 μM) as competitor (protein)
chain: GVQVETISSGDGRTFPKRGQTCVVHYTGMLEDGKKFDSSRDRNKPFKFTLGKQEVIRGWEEGVAQMSVGQRAKLIISPDYAYGATGHPGIIPPHATLVFDVELLKLE
- antagonism of rapamycin-induced crosslinking of 32P-FKBP12 to the target proteins ([3]; competitor at 1 μM, all rapamycin concentrations tested): prevent the rapamycin-dependent association; also recorded: completely suppressed the appearance of the crosslinked bands

Source: US6492106B1, “Mammalian proteins that bind to FKBP12 in a rapamycin-dependent fashion” (The Johns Hopkins University, priority 1994, dated 2002)
